From patent publication US20240261333A1, “NOVEL TARGETS FOR ENHANCING ANTI-TUMOR IMMUNITY” (THE BROAD INSTITUTE, INC., priority 2021, published 2024) come the findings set out here.

The target in this test is T1, B3GNT2 (Homo sapiens, UniProt Q9NY97).
T1 construct: The respective ORFs of candidate genes [CD274 (NM_014143), MCL1 (NM_021960), JUNB (NM_002229), and B3GNT2 (NM_006577)] were synthesized; expressed in transfected cells; host or cells: A375 melanoma cells (lentiviral ORF overexpression)
T1 sequence (Q9NY97 1-397): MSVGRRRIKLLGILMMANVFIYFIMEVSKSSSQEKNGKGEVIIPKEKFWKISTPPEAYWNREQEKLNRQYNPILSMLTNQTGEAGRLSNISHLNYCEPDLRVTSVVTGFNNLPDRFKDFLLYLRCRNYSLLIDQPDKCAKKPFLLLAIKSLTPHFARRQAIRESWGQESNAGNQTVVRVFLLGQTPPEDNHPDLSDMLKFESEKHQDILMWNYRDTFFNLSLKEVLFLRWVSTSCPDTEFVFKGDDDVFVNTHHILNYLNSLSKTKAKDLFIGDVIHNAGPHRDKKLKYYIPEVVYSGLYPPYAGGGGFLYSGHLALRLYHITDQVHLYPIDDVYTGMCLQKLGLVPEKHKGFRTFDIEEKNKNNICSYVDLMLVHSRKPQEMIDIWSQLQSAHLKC
Kind of test: Co-IP of FLAG-tagged B3GNT2 followed by mass spectrometry. As to conditions: mass spectrometry count, unit not given; for C-term flag / N-term FLAG: Co-IP with FLAG antibody; for C-term flag / C-term IgG: C-terminally FLAG-tagged B3GNT2; for N-term FLAG / N-term IgG: N-terminally FLAG-tagged B3GNT2; for C-term IgG / N-term IgG: Co-IP with IgG control antibody. Further details: C-term IgG / C-term flag: unit not given here. In kind it is cell-based. The method in brief: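 Co-purifying proteins were identified by fractionated nano-LC–MS/MS on an Orbitrap Elite, run data-dependent. Beforehand, lysates in 1% Triton X-100/HEPES buffer were incubated overnight at 4° C with anti-FLAG or […] and pulled down on Protein A/G magnetic beads for 4 h. Duplicate biological replicates.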

B1: ILF3 (protein)
chain: MRPMRIFVNDDRHVMAKHSSVYPTQEELEAVQNMVSHTERALKAVSDWIDEQEKGSSEQAESDNMDVPPEDDSKEGAGEQKTEHMTRTLRGVMRVGLVAKGLLLKGDLDLELVLLCKEKPTTALLDKVADNLAIQLAAVTEDKYEILQSVDDAAIVIKNTKEPPLSLTIHLTSPVVREEMEKVLAGETLSVNDPPDVLDRQKCLAALASLRHAKWFQARANGLKSCVIVIRVLRDLCTRVPTWGPLRGWPLELLCEKSIGTANRPMGAGEALRRVLECLASGIVMPDGSGIYDPCEKEATDAIGHLDRQQREDITQSAQHALRLAAFGQLHKVLGMDPLPSKMPKKPKNENPVDYTVQIPPSTTYAITPMKRPMEEDGEEKSPSKKKKKIQKKEEKAEPPQAMNALMRLNQLKPGLQYKLVSQTGPVHAPIFTMSVEVDGNSFEASGPSKKTAKLHVAVKVLQDMGLPTGAEGRDSSKGEDSAEETEAKPAVVAPAPVVEAVSTPSAAFPSDATAEQGPILTKHGKNPVMELNEKRRGLKYELISETGGSHDKRFVMEVEVDGQKFQGAGSNKKVAKAYAALAALEKLFPDTPLALDANKKKRAPVPVRGGPKFAAKPHNPGFGMGGPMHNEVPPPPNLRGRGRGGSIRGRGRGRGFGGANHGGYMNAGAGYGSYGYGGNSATAGYSQFYSNGGHSGNASGGGGGGGGGSSGYGSYYQGDNYNSPVPPKHAGKKQPHGGQQKPSYGSGYQSHQGQQQSYNQSPYSNYGPPQGKQKGYNHGQGSYSYSNSYNSPGGGGGSDYNYESKFNYSGSGGRSGGNSYGSGGASYNPGSHGGYGGGSGGGSSYQGKQGGYSQSNYNSPGSGQNYSGPPSSYQSSQGGYGRNADHSMNYQYR
On to B1, for which the C-term flag stood at 5, the “N-term FLAG” value is 2, the “C-term IgG” value came out at 0 and the “N-term IgG” value was 0.

B2: ZC3HAV1 (protein, UniProt Q7Z2W4 2-902, looked up)
Zinc finger CCCH-type …: ADPEVCCFITKILCAHGGRMALDALLQEIALSEPQLCEVLQVAGPDRFVVLETGGEAGITRSVVATTRARVCRRKYCQRPCDNLHLCKLNLLGRCNYSQSERNLCKYSHEVLSEENFKVLKNHELSGLNKEELAVLLLQSDPFFMPEICKSYKGEGRQQICNQQPPCSRLHICDHFTRGNCRFPNCLRSHNLMDRKVLAIMREHGLNPDVVQNIQDICNSKHMQKNPPGPRAPSSHRRNMAYRARSKSRDRFFQGSQEFLASASASAERSCTPSPDQISHRASLEDAPVDDLTRKFTYLGSQDRARPPSGSSKATDLGGTSQAGTSQRFLENGSQEDLLHGNPGSTYLASNSTSAPNWKSLTSWTNDQGARRKTVFSPTLPAARSSLGSLQTPEAVTTRKGTGLLSSDYRIINGKSGTQDIQPGPLFNNNADGVATDITSTRSLNYKSTSSGHREISSPRIQDAGPASRDVQATGRIADDADPRVALVNDSLSDVTSTTSSRVDDHDSEEICLDHLCKGCPLNGSCSKVHFHLPYRWQMLIGKTWTDFEHMETIEKGYCNPGIHLCSVGSYTINFRVMSCDSFPIRRLSTPSSVTKPANSVFTTKWIWYWKNESGTWIQYGEEKDKRKNSNVDSSYLESLYQSCPRGVVPFQAGSRNYELSFQGMIQTNIASKTQKDVIRRPTFVPQWYVQQMKRGPDHQPAKTSSVSLTATFRPQEDFCFLSSKKYKLSEIHHLHPEYVRVSEHFKASMKNFKIEKIKKIENSELLDKFTWKKSQMKEEGKLLFYATSRAYVESICSNNFDSFLHETHENKYGKGIYFAKDAIYSHKNCPYDAKNVVMFVAQVLVGKFTEGNITYTSPPPQFDSCVDTRSNPSVFVIFQKDQVYPQYVIEYTEDKACVIS
As for B2, the C-term flag is listed as 4, the “N-term FLAG” value turned out to be 3, the “C-term IgG” value came to 0 and the “N-term IgG” value came to 0.

B3: TUBB6 (protein)
chain: MREIVHIQAGQCGNQIGTKFWEVISDEHGIDPAGGYVGDSALQLERINVYYNESSSQKYVPRAALVDLEPGTMDSVRSGPFGQLFRPDNFIFGQTGAGNNWAKGHYTEGAELVDAVLDVVRKECEHCDCLQGFQLTHSLGGGTGSGMGTLLISKIREEFPDRIMNTFSVMPSPKVSDTVVEPYNATLSVHQLVENTDETYCIDNEALYDICFRTLKLTTPTYGDLNHLVSATMSGVTTSLRFPGQLNADLRKLAVNMVPFPRLHFFMPGFAPLTSRGSQQYRALTVPELTQQMFDARNMMAACDPRHGRYLTVATVFRGPMSMKEVDEQMLAIQSKNSSYFVEWIPNNVKVAVCDIPPRGLKMASTFIGNSTAIQELFKRISEQFSAMFRRKAFLHWFTGEGMDEMEFTEAESNMNDLVSEYQQYQDATANDGEEAFEDEEEEIDG
For the molecule B3, the C-term flag stood at 42, the “N-term FLAG” value was 63, the “C-term IgG” value worked out at 0 and the “N-term IgG” value stood at 0.

B4: SPRR1A (protein)
chain: MNSQQQKQPCTPPPQPQQQQVKQPCQPPPQEPCIPKTKEPCHPKVPEPCHPKVPEPCQPKVPEPCQPKVPEPCPSTVTPAPAQQKTKQK
Turning to B4, the C-term flag was 3, the “N-term FLAG” value is given as 4, the “C-term IgG” value was 0 and the “N-term IgG” value is 0.

B5: MAGT1 (protein)
chain: QRKKEMVLSEKVSQLMEWTNKRPVIRMNGDKFRRLVKAPPRNYSVIVMFTALQLHRQCVVCKQADEEFQILANSWRYSSAFTNRIFFAMVDFDEGSDVFQMLNMNSAPTFINFPAKGKPKRGDTYELQVRGFSAEQIARWIADRTDVNIRVIRPPNYAGPLMLGLLLAVIGGLVYLRRSNMEFLFNKTGWAFAALCFVLAMTSGQMWNHIRGPPYAHKNPHTGHVNYIHGSSQAQFVAETHIVLLFNGGVTLGMVLLCEAATSDMDIGKRKIMCVAGIGLVVLFFSWMLSIFRSKYHGYPYSFLMS
For the molecule B5, the C-term flag came to 2, the “N-term FLAG” value worked out at 0, the “C-term IgG” value came out at 0 and the “N-term IgG” value was found to be 0.
